According to patent publication US7410949 (Hoffmann-La Roche, dated 2008):
*1 amine or outer side, *2 acyl side, *3 side chain or, on linkers, in order; H or OH if unused. Bridges are numbered along the chain shown (N, C = ends). [ ]: non-standard residue; d: D form. Pqa = N-piperazin-1-yl-4(3H)-quinazolinone-3-acetic acid, O=C(Cn1cnc2ccc(N3CCN([*:1])CC3)cc2c1=O)[*:2]; Phe(3,4,5-F3) = N[C@@H](Cc1cc(F)c(F)c(F)c1)C(=O)O; Phe(F5) = N[C@@H](Cc1c(F)c(F)c(F)c(F)c1F)C(=O)O; 4Pal = N[C@@H](Cc1ccncc1)C(=O)O; Tic = O=C(O)[C@@H]1Cc2ccccc2CN1; 4‑MeOApc = not defined here; Nle = CCCC[C@H](N)C(=O)O

B1: H-Ile-Lys-Pqa-Arg-His-Tyr-Leu-Asn-Leu-Val-Thr-Arg-Ala-Arg-Tyr-NH2 (peptide)
peptide: H-IK[Pqa]RHYLNLVTRARY-NH2
SMILES: CC[C@H](C)[C@H](N)C(=O)N[C@@H](CCCCN)C(=O)N1CCN(c2ccc3ncn(CC(=O)N[C@@H](CCCNC(=N)N)C(=O)N[C@@H](Cc4c[nH]cn4)C(=O)N[C@@H](Cc4ccc(O)cc4)C(=O)N[C@@H](CC(C)C)C(=O)N[C@@H](CC(N)=O)C(=O)N[C@@H](CC(C)C)C(=O)N[C@H](C(=O)N[C@H](C(=O)N[C@@H](CCCNC(=N)N)C(=O)N[C@@H](C)C(=O)N[C@@H](CCCNC(=N)N)C(=O)N[C@@H](Cc4ccc(O)cc4)C(N)=O)[C@@H](C)O)C(C)C)c(=O)c3c2)CC1
B2: Cyclo Lys28-Asp32 Ac-Ile-Nle-Pqa-Arg-His-Tyr-Lys-Asn-Leu-Val-Asp-Arg-Gln-Arg-Tyr-NH2 (peptide)
peptide: Ac-I[Nle][Pqa]RHYKNLVDRQRY-NH2
modifications: lactam 7-11
B3: Ac-Ile-Nle-Pqa-Arg-His-Tic-Leu-Asn-Leu-Val-Thr-Arg-Gln-Arg-Tyr-NH2 (peptide)
peptide: Ac-I[Nle][Pqa]RH[Tic]LNLVTRQRY-NH2
SMILES: CCCC[C@H](NC(=O)[C@@H](NC(C)=O)[C@@H](C)CC)C(=O)N1CCN(c2ccc3ncn(CC(=O)N[C@@H](CCCNC(=N)N)C(=O)N[C@@H](Cc4c[nH]cn4)C(=O)N4Cc5ccccc5C[C@H]4C(=O)N[C@@H](CC(C)C)C(=O)N[C@@H](CC(N)=O)C(=O)N[C@@H](CC(C)C)C(=O)N[C@H](C(=O)N[C@H](C(=O)N[C@@H](CCCNC(=N)N)C(=O)N[C@@H](CCC(N)=O)C(=O)N[C@@H](CCCNC(=N)N)C(=O)N[C@@H](Cc4ccc(O)cc4)C(N)=O)[C@@H](C)O)C(C)C)c(=O)c3c2)CC1
B4: H-Ile-Lys-Pqa-Arg-His-Tyr-Leu-Asn-Leu-Val-Ala-Arg-Gln-Arg-Tyr-NH2 (peptide)
peptide: H-IK[Pqa]RHYLNLVARQRY-NH2
SMILES: CC[C@H](C)[C@H](N)C(=O)N[C@@H](CCCCN)C(=O)N1CCN(c2ccc3ncn(CC(=O)N[C@@H](CCCNC(=N)N)C(=O)N[C@@H](Cc4c[nH]cn4)C(=O)N[C@@H](Cc4ccc(O)cc4)C(=O)N[C@@H](CC(C)C)C(=O)N[C@@H](CC(N)=O)C(=O)N[C@@H](CC(C)C)C(=O)N[C@H](C(=O)N[C@@H](C)C(=O)N[C@@H](CCCNC(=N)N)C(=O)N[C@@H](CCC(N)=O)C(=O)N[C@@H](CCCNC(=N)N)C(=O)N[C@@H](Cc4ccc(O)cc4)C(N)=O)C(C)C)c(=O)c3c2)CC1
B5: Ac-Ile-Nle-Pqa-Arg-(4-MeOApc)-Tyr-Leu-Asn-Leu-Val-Thr-Arg-Gln-Arg-Tyr-NH2 (peptide)
peptide: Ac-I[Nle][Pqa]R[4‑MeOApc]YLNLVTRQRY-NH2
modifications: reading uncertain
B6: Ac-Ile-Nle-Pqa-Arg-(4-Pal)-Tyr-Leu-Asn-Leu-Val-Thr-Arg-Gln-Arg-Tyr-NH2 (peptide)
peptide: Ac-I[Nle][Pqa]R[4Pal]YLNLVTRQRY-NH2
SMILES: CCCC[C@H](NC(=O)[C@@H](NC(C)=O)[C@@H](C)CC)C(=O)N1CCN(c2ccc3ncn(CC(=O)N[C@@H](CCCNC(=N)N)C(=O)N[C@@H](Cc4ccncc4)C(=O)N[C@@H](Cc4ccc(O)cc4)C(=O)N[C@@H](CC(C)C)C(=O)N[C@@H](CC(N)=O)C(=O)N[C@@H](CC(C)C)C(=O)N[C@H](C(=O)N[C@H](C(=O)N[C@@H](CCCNC(=N)N)C(=O)N[C@@H](CCC(N)=O)C(=O)N[C@@H](CCCNC(=N)N)C(=O)N[C@@H](Cc4ccc(O)cc4)C(N)=O)[C@@H](C)O)C(C)C)c(=O)c3c2)CC1
B7: Ac-Ile-Nle-Pqa-(3,4,5 Trifluoro Phe)-His-Tyr-Leu-Asn-Leu-Val-Thr-Arg-Gln-Arg-Tyr-NH2 (peptide)
peptide: Ac-I[Nle][Pqa][Phe(3,4,5-F3)]HYLNLVTRQRY-NH2
SMILES: CCCC[C@H](NC(=O)[C@@H](NC(C)=O)[C@@H](C)CC)C(=O)N1CCN(c2ccc3ncn(CC(=O)N[C@@H](Cc4cc(F)c(F)c(F)c4)C(=O)N[C@@H](Cc4c[nH]cn4)C(=O)N[C@@H](Cc4ccc(O)cc4)C(=O)N[C@@H](CC(C)C)C(=O)N[C@@H](CC(N)=O)C(=O)N[C@@H](CC(C)C)C(=O)N[C@H](C(=O)N[C@H](C(=O)N[C@@H](CCCNC(=N)N)C(=O)N[C@@H](CCC(N)=O)C(=O)N[C@@H](CCCNC(=N)N)C(=O)N[C@@H](Cc4ccc(O)cc4)C(N)=O)[C@@H](C)O)C(C)C)c(=O)c3c2)CC1
B8: Ac-Ile-Nle-Pqa-(2,3,4,5,6 Penta fluoro Phe)-His Tyr-Leu-Asn-Leu-Val-Thr-Arg-Gln-Arg-Tyr-NH2 (peptide)
peptide: Ac-I[Nle][Pqa][Phe(F5)]HYLNLVTRQRY-NH2
SMILES: CCCC[C@H](NC(=O)[C@@H](NC(C)=O)[C@@H](C)CC)C(=O)N1CCN(c2ccc3ncn(CC(=O)N[C@@H](Cc4c(F)c(F)c(F)c(F)c4F)C(=O)N[C@@H](Cc4c[nH]cn4)C(=O)N[C@@H](Cc4ccc(O)cc4)C(=O)N[C@@H](CC(C)C)C(=O)N[C@@H](CC(N)=O)C(=O)N[C@@H](CC(C)C)C(=O)N[C@H](C(=O)N[C@H](C(=O)N[C@@H](CCCNC(=N)N)C(=O)N[C@@H](CCC(N)=O)C(=O)N[C@@H](CCCNC(=N)N)C(=O)N[C@@H](Cc4ccc(O)cc4)C(N)=O)[C@@H](C)O)C(C)C)c(=O)c3c2)CC1
B9: H-Ile-Lys-Pqa-Arg-His-Tyr-Leu-Asn-Leu-Ala-Thr-Arg-Gln-Arg-Tyr-NH2 (peptide)
peptide: H-IK[Pqa]RHYLNLATRQRY-NH2
SMILES: CC[C@H](C)[C@H](N)C(=O)N[C@@H](CCCCN)C(=O)N1CCN(c2ccc3ncn(CC(=O)N[C@@H](CCCNC(=N)N)C(=O)N[C@@H](Cc4c[nH]cn4)C(=O)N[C@@H](Cc4ccc(O)cc4)C(=O)N[C@@H](CC(C)C)C(=O)N[C@@H](CC(N)=O)C(=O)N[C@@H](CC(C)C)C(=O)N[C@@H](C)C(=O)N[C@H](C(=O)N[C@@H](CCCNC(=N)N)C(=O)N[C@@H](CCC(N)=O)C(=O)N[C@@H](CCCNC(=N)N)C(=O)N[C@@H](Cc4ccc(O)cc4)C(N)=O)[C@@H](C)O)c(=O)c3c2)CC1
B10: H-Ile-Lys-Pqa-Arg-His-Tyr-Leu-Asn-Ala-Val-Thr-Arg-Gln-Arg-Tyr-NH2 (peptide)
peptide: IKRHYLNAVTRQRY
modifications: Pqa moiety between the two parts; C-terminal amide
B11: H-Ile-Lys-Pqa-Arg-His-Tyr-Leu-Ala-Leu-Val-Thr-Arg-Gln-Arg-Tyr-NH2 (peptide)
peptide: H-IK[Pqa]RHYLALVTRQRY-NH2
SMILES: CC[C@H](C)[C@H](N)C(=O)N[C@@H](CCCCN)C(=O)N1CCN(c2ccc3ncn(CC(=O)N[C@@H](CCCNC(=N)N)C(=O)N[C@@H](Cc4c[nH]cn4)C(=O)N[C@@H](Cc4ccc(O)cc4)C(=O)N[C@@H](CC(C)C)C(=O)N[C@@H](C)C(=O)N[C@@H](CC(C)C)C(=O)N[C@H](C(=O)N[C@H](C(=O)N[C@@H](CCCNC(=N)N)C(=O)N[C@@H](CCC(N)=O)C(=O)N[C@@H](CCCNC(=N)N)C(=O)N[C@@H](Cc4ccc(O)cc4)C(N)=O)[C@@H](C)O)C(C)C)c(=O)c3c2)CC1
B12: H-Ile-Lys-Pqa-Arg-Ala-Tyr-Leu-Asn-Leu-Val-Thr-Arg-Gln-Arg-Tyr-NH2 (peptide)
peptide: H-IK[Pqa]RAYLNLVTRQRY-NH2
SMILES: CC[C@H](C)[C@H](N)C(=O)N[C@@H](CCCCN)C(=O)N1CCN(c2ccc3ncn(CC(=O)N[C@@H](CCCNC(=N)N)C(=O)N[C@@H](C)C(=O)N[C@@H](Cc4ccc(O)cc4)C(=O)N[C@@H](CC(C)C)C(=O)N[C@@H](CC(N)=O)C(=O)N[C@@H](CC(C)C)C(=O)N[C@H](C(=O)N[C@H](C(=O)N[C@@H](CCCNC(=N)N)C(=O)N[C@@H](CCC(N)=O)C(=O)N[C@@H](CCCNC(=N)N)C(=O)N[C@@H](Cc4ccc(O)cc4)C(N)=O)[C@@H](C)O)C(C)C)c(=O)c3c2)CC1
B13: H-Ile-Ala-Pqa-Arg-His-Tyr-Leu-Asn-Leu-Val-Thr-Arg-Gln-Arg-Tyr-NH2 (peptide)
peptide: IARHYLNLVTRQRY
modifications: Pqa moiety between the two parts; C-terminal amide

The binders below were run against Y4R (assay: cell-based or functional assay).

**Q.** With B1 as the binder, how does the “Y4R EC50(nM) FLIPR” value read?
**A.** The value was greater than 5000 nM.

**Q.** For B2, which “Y4R EC50(nM) FLIPR” value is on record?
**A.** Its value is greater than 5000 nM.

**Q.** Which “Y4R EC50(nM) FLIPR” value does the source give for B3 here?
**A.** The value was greater than 5000 nM.

**Q.** Which “Y4R EC50(nM) FLIPR” value does the source give for B4 here?
**A.** The value was greater than 5000 nM.

**Q.** Which “Y4R EC50(nM) FLIPR” value does the source give for B5 here?
**A.** The value was greater than 5000 nM.

**Q.** B6 was tested. Which “Y4R EC50(nM) FLIPR” value did it give?
**A.** The value was greater than 5000 nM.

**Q.** B7 was tested. Which “Y4R EC50(nM) FLIPR” value did it give?
**A.** The value was greater than 5000 nM.

**Q.** For B8, which “Y4R EC50(nM) FLIPR” value is on record?
**A.** The value was greater than 5000 nM.

**Q.** With B9 as the binder, how does the “Y4R EC50(nM) FLIPR” value read?
**A.** Its value is greater than 5000 nM.

**Q.** B10 was tested. Which “Y4R EC50(nM) FLIPR” value did it give?
**A.** The value was greater than 5000 nM.

**Q.** Which “Y4R EC50(nM) FLIPR” value does the source give for B11 here?
**A.** The value was greater than 5000 nM.

**Q.** Which “Y4R EC50(nM) FLIPR” value does the source give for B12 here?
**A.** Its value is greater than 5000 nM.

**Q.** For B13, which “Y4R EC50(nM) FLIPR” value is on record?
**A.** Its value is greater than 5000 nM.

The binders below were run against Y1R (assay: cell-based or functional assay).
Chain of Y1R (P25929 whole entry): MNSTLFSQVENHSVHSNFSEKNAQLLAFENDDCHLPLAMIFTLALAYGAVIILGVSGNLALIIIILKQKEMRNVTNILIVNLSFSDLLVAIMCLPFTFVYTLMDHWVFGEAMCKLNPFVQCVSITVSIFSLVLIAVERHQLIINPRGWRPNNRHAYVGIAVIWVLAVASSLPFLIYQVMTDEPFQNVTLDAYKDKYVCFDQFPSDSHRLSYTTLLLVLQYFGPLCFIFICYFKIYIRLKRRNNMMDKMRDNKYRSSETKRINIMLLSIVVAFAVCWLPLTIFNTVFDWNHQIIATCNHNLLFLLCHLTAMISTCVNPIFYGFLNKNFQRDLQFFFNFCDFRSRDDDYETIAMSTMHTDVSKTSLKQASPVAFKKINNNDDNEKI

**Q.** Which “Y1R EC50(nM) FLIPR” value does the source give for B1 here?
**A.** Its value is greater than 5000 nM.

**Q.** For B2, which “Y1R EC50(nM) FLIPR” value is on record?
**A.** The value was greater than 5000 nM.

**Q.** B3 was tested. Which “Y1R EC50(nM) FLIPR” value did it give?
**A.** Its value is greater than 5000 nM.

**Q.** Which “Y1R EC50(nM) FLIPR” value does the source give for B4 here?
**A.** Its value is greater than 5000 nM.

**Q.** With B5 as the binder, how does the “Y1R EC50(nM) FLIPR” value read?
**A.** Its value is greater than 5000 nM.

**Q.** For B6, which “Y1R EC50(nM) FLIPR” value is on record?
**A.** The value was greater than 5000 nM.

**Q.** With B7 as the binder, how does the “Y1R EC50(nM) FLIPR” value read?
**A.** Its value is greater than 5000 nM.

**Q.** B8 was tested. Which “Y1R EC50(nM) FLIPR” value did it give?
**A.** The value was greater than 5000 nM.

**Q.** How did the “Y1R EC50(nM) FLIPR” value turn out when B9 was run?
**A.** The value was greater than 5000 nM.

**Q.** For B10, which “Y1R EC50(nM) FLIPR” value is on record?
**A.** The value was greater than 5000 nM.

**Q.** B11 was tested. Which “Y1R EC50(nM) FLIPR” value did it give?
**A.** The value was greater than 5000 nM.

**Q.** Which “Y1R EC50(nM) FLIPR” value does the source give for B12 here?
**A.** The value was greater than 5000 nM.

**Q.** With B13 as the binder, how does the “Y1R EC50(nM) FLIPR” value read?
**A.** The value was 1000 nM.
